This is an account of results in US20150037328A1 (Pfizer, published 2015).

The target of assay [1] is T1, human CXCR4 (chemokine (C-X-C motif) receptor 4) (human, UniProt P61073 1-352). As to the kind of experiment: cell-based or functional assay.
Assay [2] deals with T1, human CXCR4 (chemokine (C-X-C motif) …). The assay is described as follows: cell-based or functional assay. The source holds these as a separate data set.
Assay [3] shares this target. The assay is described as follows: flow cytometry on Raji cells, dilution series 0.007-267 nM. As to the method: (§1) Binding was detected by 2nd Ab (Alexa Fluor 647-conjugated goat anti-human IgG, Fcgamma specific, Jackson ImmunoResearch Laboratories, West Grove Pa.) and acquired with LSRFortessa cell analyzer (BD Biosciences, San Jose Calif.). Curve fit and EC50 calculation was performed with Prism software (GraphPad Software, La Jolla Calif.). Tables 9A and 9B and FIGS. 3A and 3B.

Assay [4] has the same target. As to the kind of experiment: flow cytometry on HPB-ALL cells, dilution series 0.007-267 nM. On the procedure:
as §1

Assay [5] concerns the target T2, cynomolgus CXCR4 (cynomolgus, UniProt Q28474 1-352).
T2 construct: whole, on cells; On Cyno-CXCR4 transfected CHO cells and on HSC-F (cynomolgus T cell line); also called Cyno-CXCR4; CynoCXCR4
The assay is described as follows: flow cytometry on Cyno-CXCR4 transfected CHO cells, dilution series 0.007-267 nM. As to the method:
as §1
Background: In flow cytometry, cells or beads pass a laser one at a time.

Assay [6] deals with T2, cynomolgus CXCR4. The assay is described as follows: flow cytometry on HSC-F (cynomolgus T cell line) cells, dilution series 0.007-267 nM. As to the method:
as §1

T1 sequence (P61073 whole entry): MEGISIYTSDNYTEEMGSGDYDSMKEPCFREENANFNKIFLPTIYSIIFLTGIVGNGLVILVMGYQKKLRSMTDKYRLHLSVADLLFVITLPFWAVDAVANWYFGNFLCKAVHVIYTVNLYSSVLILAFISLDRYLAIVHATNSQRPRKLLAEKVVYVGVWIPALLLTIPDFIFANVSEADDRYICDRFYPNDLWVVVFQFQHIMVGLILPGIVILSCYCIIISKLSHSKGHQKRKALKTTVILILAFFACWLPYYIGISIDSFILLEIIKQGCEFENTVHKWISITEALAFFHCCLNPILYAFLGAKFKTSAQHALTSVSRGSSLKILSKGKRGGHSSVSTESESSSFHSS
T2 sequence (Q28474 whole entry): as the sequence (P61073 whole entry) above, with M24I, N35H, K38R, R146K, N176S counted along it

B1: humanized anti-CXCR4 antibody h3G10.1.91.A58B (antibody, V domains shown)
VH: EVQLVESGGGLVQPGGSLRLSCAASGFTFSDYYMSWVRQAPGKGLEWVGFIRHKANFETTEYSTSVKGRFTISRDDSKNSLYLQMNSLKTEDTAVYYCARDLPGFAYWGQGTLVTVSS
VL: DIVMTQSPDSLAVSLGERATINCKSSQSLFNSHTRKNYLAWYQQKPGQPPKLLIYWASARGSGVPDRFSGSGSGTDFTLTISSLQAEDVAVYYCKQSFNLRTFGGGTKVEIK
notes: Whole antibody (detected with an anti-human IgG Fc gamma specific second antibody); also called h3G10.1.91 VH / h3G10.A58B VL; CXCR4 Ab h3G10.1.91.A58B
Consider B1, for which the “IC50 (M), Calcium Flux Activity (average of 3 experiments)” value in assay [1] stood at 2.17e-09 M. Besides, the “EC50 (M), cAMP assay, CHO-K1 cells transfected with human CXCR4” value in assay [2] turned out to be 3.92e-08 M. Besides, the EC50 in assay [3] was found to be 3.05 nM; in assay [4], 0.27 nM; with cynomolgus CXCR4 [5], 0.16 nM; with cynomolgus CXCR4 [6] it was 2.58 nM.

One may read the EC50 as the midpoint of the concentration-response curve.
